Assay results published in US20190049430.

Key:
[1] = target: T1, FRET peptide MCA-ATDHGSES-Lys DNP (no RA motif)
T1 chain: ATDHGSES

[2] = target: T2, OPA1 FRET substrate MCA-AFRATDHG-DNP
T2 chain: AFRATDHG

B1: Metalloendopeptidase OMA1 (OMA1), endogenous enzyme in normal rat kidney (NRK-52E) cell lysate (protein)
chain: AAPVPLLMLILKPVQKLLAIIVGRGIRKWWQALPPDKKALFKDSVKRNKWRLLLGLSAFGLLFVVFYFTHLEVSPVTGRSKLLLVGKEHFRLLSDLEYEVWMEEFKNDLLPEEDPRYLTVKKVVYHLTQCNQDVPGVSEINWVVHVVHSPKVNAFVLPNGQVFVFTGLLNSVTDMHQLSFLLGHEIAHAVLGHAAEKASLVHLLDFLGMIFLTMIWAICPRDSLAVLGQWIQSKLQEYMFDRPYSRTLEAEADKIGLQLAAKACVDVRASSVFWQQMEFSESLHGYPKLPEWLSTHPSHGNRAEYLDRLIPQALKLREVCNCPPLSGPDPRLLFRLTVKHLLEDSEKEDLNITVKKQKPDALPIQKQEQIPLTYALGKRTAG
OMA1 Activity (average slope over 30 min compared to AFRATDHG substrate) [1]: 2.71%
OMA1 Activity (average slope over 30 min compared to AFRATDHG substrate) [2]: 100%
